B1: TPR t1 (parent)
chain: GACCAAUCUGCCCUCAGAGCUCGAGAACAUCUUCGGAUGCAGAGGAGGCAGGCUUCGGUGGCGCGAUAGCGCCAACGUCCUCAACCUCCAAUGCAUCCCACCACAUGAUGAUGCCUGAAGAGCCUUGGUUUUUUG

Variants of: B1
Experiment: polymerase ribozyme fitness, log enrichment relative to wild type (log ratio); higher = more active; in vitro selection for triplet polymerase activity
Method in brief: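 Libraries of mutants in each subunit of a heterodimeric triplet polymerase ribozyme were generated by PCR and transcribed. In triplicate, each went through one in vitro selection round: annealing with biotinylated primer, partner subunit and triplets; frozen incubation at −7 °C; gel excision of extended constructs; streptavidin-bead capture; RT-PCR. Fitness, taken from Illumina sequencing of input and output libraries, is the logarithm of a genotype's enrichment over wild-type enrichment, averaged across replicates with inverse-variance weights. The logarithm is base 2, and genotypes needed ≥10 input reads and ≥1 read per output to be kept.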

In order of falling “polymerase ribozyme fitness (log ratio)” value:
1. A121U U130G  1.98
2. U112A A119G  1.9
3. G122A C123G  1.74
4. A121G U133G  1.55
5. G120C U132C  1.38
6. U112A A118U G135A  1.33
7. C124A U130A  1.09
8. U112A U126A  1.04
9. G120C C124A  1.02
10. G120A U130A  0.684
11. U112G U116A G117U A121G  0.651
12. G120A U126A U131G  0.608
13. G120U U125A  0.531
14. G122A C123U  0.258
15. C104U A118U U131A  0.243
16. U131C  0.237
17. G120C U130A  0.0796
18. C123U U126A  0.0607
19. G128U U130C  0.0266
20. U125A U133C  -0.0467
21. U131A  -0.123
22. C123G G127A  -0.249
23. C101G U106A G122A  -0.277
24. C115A G127A  -0.375
25. U116C  -0.392
26. C115A G128A U130C  -0.444
27. U131G  -0.452
28. U112C G117A  -0.498
29. G110U U125A  -0.916
30. U125A U133A  -0.956
31. U112A C114A U133A  -1.04
32. C114U C124A  -1.04
33. C102U G120C  -1.05
34. C101U G122A  -1.06
35. U130G U132A  -1.3
36. G128A U130G  -1.43
37. U116A G120U  -1.5
38. G117A U131A  -1.59
39. C115A G127C  -1.67
40. U106A G117C  -1.94
41. U116G  -1.95
42. C104U G117U U132A  -1.97
43. C104U U112G U116C  -1.98
44. A111G G113C  -2.06
45. A111G G120A G122A  -2.07
46. C114U A118G  -2.12
47. U112G U116G  -2.14
48. G110A A119C  -2.25
49. A111C A119U  -2.28
50. C101G G127A  -2.28
51. G113C G120A  -2.39
52. G127A G128U  -2.41
53. U112G G113A U125C  -2.43
54. G113C C124U  -2.58
55. C115U G127C  -2.76
56. C115A G127U  -2.8
57. C102U G113A  -2.86
58. C101G U112A U116A U126A G127U  -2.86
59. U116A  -2.96
60. G117C A121U  -3
61. U106A G110U U126A U130A  -3.03
62. U109A G110U  -3.28
63. G113A G122C  -3.36
64. C114U G127A  -3.37
65. G117A A119C G120C G122A U133G  -3.42
66. C104A C124U U130A  -3.43
67. A103U C123U  -3.47
68. A111C G113U  -3.68
69. C114U U129C  -3.79
70. G113U G120A U132A  -3.83
71. U109G U132A  -3.91
72. U116A U129A  -4.24
73. G117A U129G  -4.37
74. G110C G122U  -4.38
75. C114G G120A G135A  -4.92
76. C101G G110U  -4.98
77. G117C G127C  -5.04
78. G113U U129G  -5.28
79. A105U A111U  -5.69
80. C102U U109A  -6.07
81. C101U A105C C114A  -6.11
82. U109A A111C C114A G117C  -6.37
83. G117C G127A  -6.44

Source: the RNAGym collection of RNA variant scans (doi:10.1073/pnas.2313332121)
